# Test results as given in US7053041B1, “Methods and compositions useful for inhibition of αvβ5mediated angiogenesis” (The Scripps Research Institute, priority 1996, dated 2006).
# [ ]: non-standard residue; d: D form.
# B1: LM609: mouse monoclonal antibody, anti-αvβ3 (antibody, V domains shown)
# VH: EVQLEESGGGLVKPGGSLKLSCAASGFAFSSYDMSWVRQIPEKRLEWVAKVSSGGGSTYYLDTVQGRFTISRDNAKNTLYLQMSSLNSEDTAMYYCARHNYGSFAYWGQGTLVTVSA
# VL: ELVMTQTPATLSVTPGDSVSLSCRASQSISNHLHWYQQKSHESPRLLIKYASQSISGIPSRFSGSGSGTDFTLSINSVETEDFGMYFCQQSNSWPHTFGGGTKLEIKRA
# How the values were obtained:
# [1] = target: integrin αIIbβ3 (Homo sapiens, UniProt P05106+P08514); conditions: cited from earlier work
# [2] = target: integrin α5β1 (Homo sapiens, UniProt P05556+P08648); conditions: cited from earlier work
# Chain of integrin α5β1 (P08648 42-894 limits assumed): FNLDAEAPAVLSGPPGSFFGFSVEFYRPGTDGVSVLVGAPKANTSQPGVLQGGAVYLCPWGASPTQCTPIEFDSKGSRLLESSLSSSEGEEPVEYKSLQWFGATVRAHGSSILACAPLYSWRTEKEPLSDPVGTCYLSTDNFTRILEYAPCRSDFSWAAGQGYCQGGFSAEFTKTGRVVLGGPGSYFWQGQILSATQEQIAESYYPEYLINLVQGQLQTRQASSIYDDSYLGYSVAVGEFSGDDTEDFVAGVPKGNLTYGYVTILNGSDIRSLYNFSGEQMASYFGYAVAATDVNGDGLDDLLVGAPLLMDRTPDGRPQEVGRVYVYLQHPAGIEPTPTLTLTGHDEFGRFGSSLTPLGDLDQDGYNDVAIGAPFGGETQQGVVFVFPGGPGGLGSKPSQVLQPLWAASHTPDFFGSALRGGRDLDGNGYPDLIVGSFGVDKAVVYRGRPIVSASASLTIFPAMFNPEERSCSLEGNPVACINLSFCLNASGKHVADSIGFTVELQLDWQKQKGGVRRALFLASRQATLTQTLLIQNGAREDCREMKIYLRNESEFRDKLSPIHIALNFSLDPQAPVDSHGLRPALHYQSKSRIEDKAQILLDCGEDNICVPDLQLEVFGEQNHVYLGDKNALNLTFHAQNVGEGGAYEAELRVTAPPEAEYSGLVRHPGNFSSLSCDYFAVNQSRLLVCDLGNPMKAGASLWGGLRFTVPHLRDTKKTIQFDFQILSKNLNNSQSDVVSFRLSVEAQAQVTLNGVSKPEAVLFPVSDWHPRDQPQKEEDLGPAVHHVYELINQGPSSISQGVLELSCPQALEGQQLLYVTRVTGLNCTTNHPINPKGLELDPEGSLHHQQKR
# Chain of integrin α5β1 (P08648 895-1049 partner limits assumed): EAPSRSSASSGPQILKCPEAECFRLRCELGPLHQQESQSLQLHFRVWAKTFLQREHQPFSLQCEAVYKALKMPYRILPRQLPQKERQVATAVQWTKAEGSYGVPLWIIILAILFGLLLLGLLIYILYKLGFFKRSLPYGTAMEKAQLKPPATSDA
# Chain of integrin α5β1 (P05556 21-798): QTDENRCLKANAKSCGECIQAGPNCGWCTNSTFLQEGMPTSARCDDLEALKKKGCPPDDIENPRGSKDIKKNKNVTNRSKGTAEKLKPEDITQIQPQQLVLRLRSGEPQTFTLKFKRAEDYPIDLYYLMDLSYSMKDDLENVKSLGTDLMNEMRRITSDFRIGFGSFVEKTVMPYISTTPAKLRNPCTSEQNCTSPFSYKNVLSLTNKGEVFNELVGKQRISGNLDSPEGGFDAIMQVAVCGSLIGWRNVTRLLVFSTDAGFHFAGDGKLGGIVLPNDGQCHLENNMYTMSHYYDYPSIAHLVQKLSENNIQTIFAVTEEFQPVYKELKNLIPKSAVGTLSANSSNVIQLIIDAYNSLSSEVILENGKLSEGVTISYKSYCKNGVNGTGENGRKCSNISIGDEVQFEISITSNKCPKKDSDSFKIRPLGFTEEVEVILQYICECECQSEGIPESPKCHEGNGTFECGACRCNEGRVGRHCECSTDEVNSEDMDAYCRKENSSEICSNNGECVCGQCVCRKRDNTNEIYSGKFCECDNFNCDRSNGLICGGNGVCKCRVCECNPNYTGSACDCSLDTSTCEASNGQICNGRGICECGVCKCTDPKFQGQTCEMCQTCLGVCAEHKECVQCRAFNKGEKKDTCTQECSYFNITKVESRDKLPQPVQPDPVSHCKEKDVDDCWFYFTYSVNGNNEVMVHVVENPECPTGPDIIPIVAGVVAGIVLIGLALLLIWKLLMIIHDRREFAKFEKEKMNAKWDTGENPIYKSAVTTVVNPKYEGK
# [3] = system: retinal vasculogenesis; assay: newborn mouse model of retinal angiogenesis; format: in vivo
# Protocol: For the model, newborn mice were injected subcutaneously twice daily for four days starting from day 0 with the cyclic peptide RGDfV (SEQ ID NO 4) (also referred to as peptide 203) or the control peptide RADfV (SEQ ID NO 5). On postnatal day five, globes were removed and fixed in 4.0% paraformaldehyde (PFA) at room temperature.
# To quantitate mouse retinal angiogenesis, the distance from the optic nerve head to the most distal point of a single vessel selected in each of six equal sectors around a twelve hour clock was measured. The mean distance was calculated and averaged with similar data obtained from an entire litter. To measure the total volume of retinal blood vessels, the entire specimen was scanned in 2.0 μm optical sections and stored digitally. The “seed” function in Bio-Rad's Lasersharp software was then used to threshold and count cubic pixels in each section. A macro was written to sum the volume of all sections and determine the value for all vascular structures.
# [4] = target: integrin αvβ3 (Homo sapiens, UniProt P05106+P06756); conditions: cited from earlier work
# Chain of integrin αvβ3 (P06756 31-889 limits assumed): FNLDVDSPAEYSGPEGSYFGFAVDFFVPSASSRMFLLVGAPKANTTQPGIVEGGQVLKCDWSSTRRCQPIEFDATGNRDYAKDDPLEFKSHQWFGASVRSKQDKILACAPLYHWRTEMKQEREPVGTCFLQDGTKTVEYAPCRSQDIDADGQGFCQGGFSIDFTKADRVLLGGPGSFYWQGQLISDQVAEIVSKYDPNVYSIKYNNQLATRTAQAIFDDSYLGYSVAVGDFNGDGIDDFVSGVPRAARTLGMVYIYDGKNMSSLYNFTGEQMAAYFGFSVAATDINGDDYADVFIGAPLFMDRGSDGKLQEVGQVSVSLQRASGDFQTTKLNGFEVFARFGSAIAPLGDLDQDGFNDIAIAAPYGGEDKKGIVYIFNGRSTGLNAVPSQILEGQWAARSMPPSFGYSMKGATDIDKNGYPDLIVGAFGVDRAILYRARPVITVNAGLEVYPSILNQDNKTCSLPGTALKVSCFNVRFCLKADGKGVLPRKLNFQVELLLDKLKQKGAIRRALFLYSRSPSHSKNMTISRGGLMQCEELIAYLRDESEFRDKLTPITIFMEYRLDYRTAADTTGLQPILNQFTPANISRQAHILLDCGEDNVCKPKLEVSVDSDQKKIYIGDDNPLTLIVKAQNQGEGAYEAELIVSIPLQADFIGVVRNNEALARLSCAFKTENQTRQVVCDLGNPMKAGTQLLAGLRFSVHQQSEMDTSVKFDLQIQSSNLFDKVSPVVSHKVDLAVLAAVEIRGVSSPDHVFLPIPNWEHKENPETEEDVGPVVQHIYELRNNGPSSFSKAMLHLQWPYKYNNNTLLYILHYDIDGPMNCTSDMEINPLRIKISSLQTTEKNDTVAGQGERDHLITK
# Chain of integrin αvβ3 (P06756 891-1048 partner limits assumed): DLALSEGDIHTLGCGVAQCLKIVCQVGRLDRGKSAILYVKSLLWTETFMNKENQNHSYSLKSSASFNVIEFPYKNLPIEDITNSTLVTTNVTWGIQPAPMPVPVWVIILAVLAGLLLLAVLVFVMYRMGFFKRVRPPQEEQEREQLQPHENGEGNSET
# Chain of integrin αvβ3 (P05106 27-788): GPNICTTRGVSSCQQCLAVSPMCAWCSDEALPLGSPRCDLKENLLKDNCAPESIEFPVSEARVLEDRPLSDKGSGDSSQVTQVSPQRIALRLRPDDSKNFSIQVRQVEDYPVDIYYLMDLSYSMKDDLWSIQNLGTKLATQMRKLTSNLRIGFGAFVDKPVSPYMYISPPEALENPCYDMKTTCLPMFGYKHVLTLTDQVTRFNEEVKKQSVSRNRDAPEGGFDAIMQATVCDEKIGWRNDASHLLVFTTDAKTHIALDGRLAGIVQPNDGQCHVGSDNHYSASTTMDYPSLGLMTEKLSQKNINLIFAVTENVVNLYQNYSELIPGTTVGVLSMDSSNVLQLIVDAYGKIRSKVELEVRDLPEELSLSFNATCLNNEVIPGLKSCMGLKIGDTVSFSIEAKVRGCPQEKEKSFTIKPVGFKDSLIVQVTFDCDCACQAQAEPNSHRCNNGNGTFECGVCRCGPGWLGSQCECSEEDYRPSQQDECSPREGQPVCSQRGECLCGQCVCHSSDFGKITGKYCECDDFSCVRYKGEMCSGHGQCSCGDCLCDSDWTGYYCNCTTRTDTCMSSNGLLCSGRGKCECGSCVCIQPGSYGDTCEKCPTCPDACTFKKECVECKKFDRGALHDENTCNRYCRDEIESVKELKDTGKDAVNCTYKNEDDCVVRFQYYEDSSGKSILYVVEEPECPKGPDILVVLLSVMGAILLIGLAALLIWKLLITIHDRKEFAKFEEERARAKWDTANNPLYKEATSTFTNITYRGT
# [5] = system: CS-1 melanoma tumors; assay: CS-1 melanoma tumor growth on chick embryo CAM, intravenous mAbs; format: in vivo; conditions: 100 to 300 μg mAb once intravenously; 7 days
# Protocol: Angiogenesis is induced in the CAM assay system by direct apposition of a tumor fragment on the CAM. Preparation of the chick embryo CAM is identical to the procedure described above. Instead of a filter paper disk, a 50 milligram (mg) to 55 mg in weight fragment of one αvβ5-negative tumor resulting from growth of cell line suspensions described below, is placed on the CAM in an area originally devoid of blood vessels.
# In one embodiment, hamster melanoma cells, CS-1, obtained from Dr. Caroline Damsky from University of California at San Francisco, were used in the CAM assay as described above for formation of melanoma tumors. Following the transfer of approximately a 50 mg CS-1 tumor fragment on a new 10 day chick embryo CAM, separate preparations received an intravenous injections of either 100 μg or 300 μg of P1F6 antibody, LM609 antibody or control CSAT (anti-β1) antibody. An additional control included a preparation that received no treatment. The results are discussed below in Example 6D.
# Tumor-induced blood vessels prepared above were also treated with mAbs applied by intravenous injection. […] After this time period, the tumors were resected and analyzed by their weight to determine the effect of antibody exposure on tumor growth or suppression.
# [6] = system: TNF-α mediated angiogenesis; assay: chick CAM assay, TNF-α-induced angiogenesis; format: in vivo; conditions: TNF-α 1.0 μg/ml; antibodies 75 μg per embryo, calphostin C 100 nM
# Protocol: (§1) The above growth factors (cytokines), including bFGF and VEGF, were separately applied at a concentration of 1.0 μg/ml to the 10 day old CAM model as previously described. PMA was used at a concentration of 20 ng/ml.
# (§2) After 24 hours after growth factor treatment, the antibodies, LM609 and P1F6, or the protein kinase C (PKC) inhibitor, calphostin C, were separately provided to the CAM model, either by a single intravascular dose as described above or by topical administration as described below in the next example. For intravascular injections over the next 3 day consecutive period, the antibodies were used at a concentration of 75 μg per embryo and the calphostin C was at a dosage of 100 nM.
# (§3) On day 13, filter discs and associated CAM tissue were dissected and analyzed for angiogenesis with a stereo microscope. Angiogenesis was scored in a double blind manner by analyzing the number and extent of branching of the blood vessels within the area of the discs. The scores ranged from low (1) to high (4). The angiogenesis index was determined by subtracting a background score of 1 from all data. Experiments were repeated 2–4 times with 5–6 embryos per condition.
# [7] = system: angiogenesis induced by TGF-α; assay: chick CAM assay, TGF-α-induced angiogenesis; format: in vivo; conditions: TGF-α 1.0 μg/ml; antibodies 75 μg per embryo, calphostin C 100 nM
# Protocol: as §1, §2, §3
# [8] = system: angiogenesis induced by PMA; assay: chick CAM assay, PMA-induced angiogenesis; format: in vivo; conditions: PMA 20 ng/ml; antibodies 75 μg per embryo, calphostin C 100 nM
# Protocol: as §1, §2, §3
Molecule,inhibition of binding of fibrinogen to integrin αIIbβ3 [1],inhibition of binding of fibrinogen to integrin α5β1 [2],mean volume of retinal vessels ([3]; postnatal day five),difference in vessel growth between untreated five-day old mice and same aged treated mice ([3]; two dimensions),inhibition of binding of fibrinogen to integrin αvβ3 [4],inhibition of CS-1 tumor growth [5],effect on CAM angiogenesis in response to TNF-α (angiogenesis index) [6],effect on CAM angiogenesis induced by TGF-α (angiogenesis index) [7],effect on CAM angiogenesis induced by PMA (angiogenesis index) [8]
"cyclo(Arg-Ala-Asp-D-Phe-Val) (cyclo(RAD[dF]V); SMILES CC(C)[C@@H]1NC(=O)[C@@H](Cc2ccccc2)NC(=O)[C@H](CC(=O)O)NC(=O)[C@H](C)NC(=O)[C@H](CCCNC(=N)N)NC1=O) [peptide 69601, reference compound]",not inhibit binding,not inhibit binding,15.7×10^6 μm^3,no statistical difference,inhibiting binding,–,–,–,–
B1,–,–,–,–,–,"also inhibited tumor growth, however, less effective than that with P1F6",blocked angiogenesis,failed to do so,failed to do so
